Source: US20220356235A1 (STICHTING SANQUIN BLOEDVOORZIENING, published 2022)

T1: recombinant human FH fragment CCP 18-20 (human, UniProt P08603 1046-1231)
T1 construct: domain: CCP 18-20; also called fragment of FH comprised of domain 18-20
T1 sequence (looked up): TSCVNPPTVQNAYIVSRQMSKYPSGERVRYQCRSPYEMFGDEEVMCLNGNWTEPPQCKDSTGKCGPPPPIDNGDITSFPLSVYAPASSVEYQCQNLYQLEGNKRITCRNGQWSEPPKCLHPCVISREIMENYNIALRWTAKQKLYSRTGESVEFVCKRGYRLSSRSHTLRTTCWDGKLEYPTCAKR

T2: recombinant human FH fragment CCP 19-20 (human, UniProt P08603 1107-1231)
T2 construct: domain: CCP 19-20
T2 sequence (looked up): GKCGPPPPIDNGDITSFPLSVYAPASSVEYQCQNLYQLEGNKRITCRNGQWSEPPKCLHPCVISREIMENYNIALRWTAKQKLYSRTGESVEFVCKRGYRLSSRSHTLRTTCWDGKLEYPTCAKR

T3: recombinant human FH fragment CCP 15-18 (human, UniProt P08603 868-1104)
T3 construct: domain: CCP 15-18
T3 sequence (looked up): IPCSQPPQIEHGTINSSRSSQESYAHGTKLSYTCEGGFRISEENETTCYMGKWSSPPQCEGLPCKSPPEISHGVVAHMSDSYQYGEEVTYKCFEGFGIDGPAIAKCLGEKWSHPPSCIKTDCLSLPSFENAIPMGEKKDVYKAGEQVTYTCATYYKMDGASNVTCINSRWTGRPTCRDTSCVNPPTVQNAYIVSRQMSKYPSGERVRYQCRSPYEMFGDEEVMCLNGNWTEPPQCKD

T4: recombinant human FH fragment CCP 15-19 (human, UniProt P08603 868-1165)
T4 construct: domain: CCP 15-19
T4 sequence (looked up): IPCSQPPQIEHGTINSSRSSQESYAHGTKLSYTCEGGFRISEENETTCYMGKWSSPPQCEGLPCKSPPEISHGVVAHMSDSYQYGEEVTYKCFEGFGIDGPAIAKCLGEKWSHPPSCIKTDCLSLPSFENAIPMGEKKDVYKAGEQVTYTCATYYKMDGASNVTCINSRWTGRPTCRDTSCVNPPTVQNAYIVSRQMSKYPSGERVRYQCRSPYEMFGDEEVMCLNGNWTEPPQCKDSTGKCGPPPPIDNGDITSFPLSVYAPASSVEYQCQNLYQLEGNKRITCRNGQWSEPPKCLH

B1: human factor H, full length (other, UniProt P08603 19-1231, looked up)
chain: EDCNELPPRRNTEILTGSWSDQTYPEGTQAIYKCRPGYRSLGNVIMVCRKGEWVALNPLRKCQKRPCGHPGDTPFGTFTLTGGNVFEYGVKAVYTCNEGYQLLGEINYRECDTDGWTNDIPICEVVKCLPVTAPENGKIVSSAMEPDREYHFGQAVRFVCNSGYKIEGDEEMHCSDDGFWSKEKPKCVEISCKSPDVINGSPISQKIIYKENERFQYKCNMGYEYSERGDAVCTESGWRPLPSCEEKSCDNPYIPNGDYSPLRIKHRTGDEITYQCRNGFYPATRGNTAKCTSTGWIPAPRCTLKPCDYPDIKHGGLYHENMRRPYFPVAVGKYYSYYCDEHFETPSGSYWDHIHCTQDGWSPAVPCLRKCYFPYLENGYNQNYGRKFVQGKSIDVACHPGYALPKAQTTVTCMENGWSPTPRCIRVKTCSKSSIDIENGFISESQYTYALKEKAKYQCKLGYVTADGETSGSITCGKDGWSAQPTCIKSCDIPVFMNARTKNDFTWFKLNDTLDYECHDGYESNTGSTTGSIVCGYNGWSDLPICYERECELPKIDVHLVPDRKKDQYKVGEVLKFSCKPGFTIVGPNSVQCYHFGLSPDLPICKEQVQSCGPPPELLNGNVKEKTKEEYGHSEVVEYYCNPRFLMKGPNKIQCVDGEWTTLPVCIVEESTCGDIPELEHGWAQLSSPPYYYGDSVEFNCSESFTMIGHRSITCIHGVWTQLPQCVAIDKLKKCKSSNLIILEEHLKNKKEFDHNSNIRYRCRGKEGWIHTVCINGRWDPEVNCSMAQIQLCPPPPQIPNSHNMTTTLNYRDGEKVSVLCQENYLIQEGEEITCKDGRWQSIPLCVEKIPCSQPPQIEHGTINSSRSSQESYAHGTKLSYTCEGGFRISEENETTCYMGKWSSPPQCEGLPCKSPPEISHGVVAHMSDSYQYGEEVTYKCFEGFGIDGPAIAKCLGEKWSHPPSCIKTDCLSLPSFENAIPMGEKKDVYKAGEQVTYTCATYYKMDGASNVTCINSRWTGRPTCRDTSCVNPPTVQNAYIVSRQMSKYPSGERVRYQCRSPYEMFGDEEVMCLNGNWTEPPQCKDSTGKCGPPPPIDNGDITSFPLSVYAPASSVEYQCQNLYQLEGNKRITCRNGQWSEPPKCLHPCVISREIMENYNIALRWTAKQKLYSRTGESVEFVCKRGYRLSSRSHTLRTTCWDGKLEYPTCAKR
notes: mature; In the serum assays (C3b deposition, hemolysis) the FH is that of normal human serum; also called FH; full length FH

Key:
[1] = target: T1, recombinant human FH fragment CCP 18-20; assay: SPR (Biacore T200), mAb captured on ProtA or ProtG chip, FH CCP18-20 flowed over, 1:1 model
Protocol: (§1) Surface plasmon resonance (SPR) experiments were performed using a BiaCore T200 (GE Healthcare) and CM5 sensor chips (GE Healthcare) in accordance with the manufacturer's instructions. In short, to determine its affinity, anti-FH.07, anti-FHR-1 3B4 or anti-FHR-1 8E4 were captured onto a ProtA or ProtG coupled chip and either full length FH or a fragment of FH comprising domain 18-20 was flown over the captured moAB at decreasing concentrations.

[2] = target: T2, recombinant human FH fragment CCP 19-20; assay: competition ELISA: mAb captured on RM-19 coated plate, FH-bt mixed with unlabelled CCP 19-20
Protocol: (§2) The location of the epitope of anti-FHR-1 mAbs was determined using recombinant human FH fragments composed of multiple CCP domains (15-18, 15-19, 18-20 or 19-20). In short, anti-FHR-1 mAbs were captured on a RM-19 coated microtiterplate to assure optimal binding conformation. Next, biotinylated FH, mixed with a 100-fold higher concentration of the indicated unlabeled recombinant FH-fragments, was incubated on the plate for 1 hour. Binding of biotinylated FH was determined by incubation with 0.01% (v/v) streptavidin conjugated with poly-HRP, in HPE for 30 min. The ELISA was further developed as described above. To determine whether the anti-FHR-1 mAbs competed with anti-FH.07 for the binding of FH, a similar set-up was used. In short, mAbs were directly coated to the plate and binding of biotinylated FH (FH-bt) in the absence or presence of a 10-fold higher concentration of indicated mAbs was assessed by ELISA as described above.

[3] = target: B1; assay: SPR (Biacore T200), mAb captured on ProtA or ProtG chip, full length FH flowed over, 1:1 model
Protocol: as §1

[4] = target: B1; assay: cell-based or functional assay
[5] = target: B1; assay: competition ELISA: mAb captured on RM-19 coated plate, FH-bt mixed with excess unlabelled full length FH; % of FH-bt binding without competitor
Protocol: as §2

[6] = target: T3, recombinant human FH fragment CCP 15-18; assay: competition ELISA: mAb captured on RM-19 coated plate, FH-bt mixed with 100-fold excess of unlabelled CCP 15-18
Protocol: as §2

[7] = target: T4, recombinant human FH fragment CCP 15-19; assay: competition ELISA: mAb captured on RM-19 coated plate, FH-bt mixed with 100-fold excess of unlabelled CCP 15-19
Protocol: as §2

[8] = target: T1, recombinant human FH fragment CCP 18-20; assay: competition ELISA: mAb captured on RM-19 coated plate, FH-bt mixed with 100-fold excess of unlabelled CCP 18-20
Protocol: as §2

[9] = target: B1; assay: SPR, mAb captured on a ProtA or ProtG chip, full length FH flowed over, 1:1 binding model
Protocol: as §1

C3b = target: T5, C3b (UniProt P01024 23-667; P01024 749-1663, limits assumed); assay: SPR (Biacore T200), C3b amine-coupled to CM5 chip, FH alone injected (10-0.01953 µM), 37 °C, equilibrium analysis; FH alone, no Fab′
T5 construct: C3b has two chains (beta and alpha') derived from C3; also called purified C3b (Complement Technologies)
Protocol: Binding of FH to C3b in the presence of the anti-FH moAbs was determined by surface plasmon resonance using a Biacore T200 instrument (GE Healthcare, Little Chalfont, UK). Purified C3b (Complement Technologies) was immobilized onto a flow cell of a CM5 Biacore Sensor Chip (GE Healthcare) using standard amine coupling. The remaining flow cell was used as reference surface and prepared by performing a coupling reaction without the addition of any protein. A response of 2000 response units (RUs) was obtained after coupling with C3b. SPR experiments were performed at 37° C. using a flow rate of 10 μl/min and in phosphate buffered saline pH 7.4 (PBS, Orphi Farma) supplemented with 0.01% (w/v) Tween-20 (Merck) (PBS-T).
To determine the effect of the antibodies without interference of possible cross-linking via the moAb, recombinantly produced Fab′ fragments of the moAbs were used. Fab′ fragments were mixed with plasma purified FH (pdFH). […] Each Fab′ fragment was also injected without addition of FH to determine any interactions of the Fab′ fragments with the surfaces. The pdFH injection was followed by a dissociation of 60 seconds and surface was regenerated between each cycle by a single injection of 1 M NaCl (Merck).
Data was analyzed using Scrubber 2 (Biologic Software) affinities were determined by equilibrium analysis.

T5 sequence (P01024 23-667 limits assumed, chain 1 of 2): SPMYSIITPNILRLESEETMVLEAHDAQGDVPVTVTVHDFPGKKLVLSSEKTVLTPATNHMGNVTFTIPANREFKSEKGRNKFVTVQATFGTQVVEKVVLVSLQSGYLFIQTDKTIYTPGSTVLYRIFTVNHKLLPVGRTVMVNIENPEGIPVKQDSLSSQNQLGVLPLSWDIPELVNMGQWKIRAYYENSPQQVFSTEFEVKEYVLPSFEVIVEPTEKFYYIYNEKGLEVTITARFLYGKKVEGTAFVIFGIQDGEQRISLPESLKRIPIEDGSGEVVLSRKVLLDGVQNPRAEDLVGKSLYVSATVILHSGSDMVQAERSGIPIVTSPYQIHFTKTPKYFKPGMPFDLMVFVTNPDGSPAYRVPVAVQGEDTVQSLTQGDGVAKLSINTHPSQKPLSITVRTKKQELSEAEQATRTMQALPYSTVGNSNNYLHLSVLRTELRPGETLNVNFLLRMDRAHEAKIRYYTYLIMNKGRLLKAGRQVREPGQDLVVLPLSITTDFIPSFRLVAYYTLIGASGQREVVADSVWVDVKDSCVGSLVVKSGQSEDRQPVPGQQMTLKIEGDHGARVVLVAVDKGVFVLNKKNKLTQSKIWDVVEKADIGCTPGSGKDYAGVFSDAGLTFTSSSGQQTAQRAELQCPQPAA
T5 sequence (P01024 749-1663 limits assumed, chain 2 of 2): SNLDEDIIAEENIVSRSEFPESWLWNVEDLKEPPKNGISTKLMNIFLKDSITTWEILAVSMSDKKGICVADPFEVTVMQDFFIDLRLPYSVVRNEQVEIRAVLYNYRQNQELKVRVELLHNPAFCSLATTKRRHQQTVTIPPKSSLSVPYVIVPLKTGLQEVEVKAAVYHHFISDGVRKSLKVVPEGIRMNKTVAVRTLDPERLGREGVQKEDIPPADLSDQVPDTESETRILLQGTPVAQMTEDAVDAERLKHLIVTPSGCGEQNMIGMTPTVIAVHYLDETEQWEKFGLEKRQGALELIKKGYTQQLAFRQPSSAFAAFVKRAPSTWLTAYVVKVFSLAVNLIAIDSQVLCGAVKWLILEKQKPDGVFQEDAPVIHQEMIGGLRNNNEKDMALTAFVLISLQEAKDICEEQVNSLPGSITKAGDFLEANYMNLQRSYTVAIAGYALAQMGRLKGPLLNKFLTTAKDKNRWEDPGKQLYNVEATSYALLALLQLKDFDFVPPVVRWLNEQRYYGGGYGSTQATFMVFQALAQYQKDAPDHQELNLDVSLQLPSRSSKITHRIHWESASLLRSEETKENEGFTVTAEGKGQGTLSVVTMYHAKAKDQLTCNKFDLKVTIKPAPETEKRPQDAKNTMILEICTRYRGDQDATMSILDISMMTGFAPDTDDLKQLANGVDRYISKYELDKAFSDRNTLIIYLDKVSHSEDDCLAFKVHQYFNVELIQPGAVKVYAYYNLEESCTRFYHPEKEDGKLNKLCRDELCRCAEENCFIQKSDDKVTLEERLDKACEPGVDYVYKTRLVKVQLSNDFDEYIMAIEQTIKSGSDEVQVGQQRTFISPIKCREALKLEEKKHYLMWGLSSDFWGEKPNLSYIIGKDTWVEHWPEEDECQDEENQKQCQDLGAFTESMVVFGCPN

| Binder | Kd [1] [nM] | koff [1] [s⁻¹] | kon [1] [M⁻¹ s⁻¹] | binding result [2] | Kd [3] [nM] | koff [3] [s⁻¹] | kon [3] [M⁻¹ s⁻¹] | IC50 (nM), Hemolytic assay [4] [nM] | IC50 (nM), LPS C3b dep. assay [4] [nM] | binding result [5] | binding result [6] | binding result [7] | binding result [8] | Kd [9] [nM] | Kd (C3b) [nM] |
| --- | --- | --- | --- | --- | --- | --- | --- | --- | --- | --- | --- | --- | --- | --- | --- |
| anti-FH.07 (antibody, V domains shown) VH: QVQLQQSGPGLVQPSQSLSITCTVSDFSLARYGVHWIRQSPGKGLEWLGVIWSGGTADYNAAFISRLNINKDNSKSQVFFKMNSLQANDTAIYYCARNFGNYAVDYWGQGTS VL: QIVLSQSPTFLSASPGEKVTVTCRASSSVKYMHWYQQKPGASPKPWIFATSNLASGVPARFSGSGSGTSYSLTISRVEAEDAATYYCQQWSIIPPTFGNGTKLELK | 0.32 | 0.00027 | 833000 | no binding | 29.7 | 0.000181 | 6090 | 153 | 38.8 |  |  |  |  |  |  |
| anti-FHR-1.11E1 (antibody, V domains shown, Mouse monoclonal from a hybridoma, raised against recombinant human FHR-1) VH: QVQLKQSGPGLVQPSQSLSITCTVSGFSLTNYGVHWVRQPPGKGLEWLGVIWSGGNTDYNAAFISRLSISKDNSKSQVFFKMNSLQADDTAIYYCAKNGDYGYTMDYWGQGTSVTVSS VL: DVVMTQTPLSLPVSLGDQASISCRSSQSLVHSNGNTYLHWYLQKPGQSPKLLIYKLSNRFSGVPDRFSGSGSGTDFTLKISRVEAEDLGVYFCSQSTHVPFTFGSGTKLEIK |  |  |  | no binding |  |  |  |  | 25 |  |  |  |  |  |  |
| FHR-1.14C4 (antibody, V domains shown, Mouse monoclonal from a hybridoma, raised against recombinant human FHR-1) VH: EVQLQQSGPELEKPGASVKISCKASGYSFTGYNMHWVKQSNGTSLEWIGKIDPYYGDTSYNQRFKGKATLTVDKSSSTAYMQLKSLTSEDSAVYYCARAFYRDYALDYWGRGTSVTVSS VL: DIVMTQSPSSLTVTAGEKVTMSCKSSQSLFNSGNQKNYLTWYQQKPGQPPKLLIYWASTRESGVPDRFTGSGSGTDFTLTISSVQAEDLAVYYCQNDYSYPLTFGAGTKLELK |  |  |  | no binding |  |  |  |  |  | binds | binds | binds | binds |  |  |
| anti-FHR-1.3B4 (antibody, V domains shown, Mouse monoclonal from a hybridoma, raised against recombinant human FHR-1; also called aFHR-1 3B4) VH: QVQLRQSGPGLVQPSQSLSITCTVSGFSLTNYGVYWVRQSPGKGLEWLGVIWSGGTTDYSAAFISRLSISKDNSKSQVFFKMNSLQADDTAIYYCARNFGNYAMDYWGQGTSVTVSS VL: QIVLSQSPTILSASPGEKVTMTCRASSSVTYMHWYQQKPGSSPKPWIYATSNLASGVPARFSGSGSGTSYSLTISRVEAEDAATYYCQQRSSSNPLTFGAGTKLELK | 0.00544 | 1.27e-05 | 2.39e+06 | no binding | 5.8 | 9.1e-05 | 15800 | 94 | 38.4 |  |  |  |  | 5.77 |  |
| B1 |  |  |  |  |  |  |  |  |  |  |  |  |  |  | 6000 |
